Measurements published in patent US12404345B2, “Humanized antibodies against iRHOM2” (SCIRHOM GMBH, priority 2021, dated 2025).

T1: rhesus monkey iRhom1 (Macaca mulatta, UniProt F6ZPC8)
T1 construct: T7-tagged version of rhesus monkey iRhom1 full length wild type; expressed in transfected cells; host or cells: immortalized iRhom1/2-/- DKO mouse embryonic fibroblasts, pMSCV retroviral infection
T1 sequence (F6ZPC8 1-833): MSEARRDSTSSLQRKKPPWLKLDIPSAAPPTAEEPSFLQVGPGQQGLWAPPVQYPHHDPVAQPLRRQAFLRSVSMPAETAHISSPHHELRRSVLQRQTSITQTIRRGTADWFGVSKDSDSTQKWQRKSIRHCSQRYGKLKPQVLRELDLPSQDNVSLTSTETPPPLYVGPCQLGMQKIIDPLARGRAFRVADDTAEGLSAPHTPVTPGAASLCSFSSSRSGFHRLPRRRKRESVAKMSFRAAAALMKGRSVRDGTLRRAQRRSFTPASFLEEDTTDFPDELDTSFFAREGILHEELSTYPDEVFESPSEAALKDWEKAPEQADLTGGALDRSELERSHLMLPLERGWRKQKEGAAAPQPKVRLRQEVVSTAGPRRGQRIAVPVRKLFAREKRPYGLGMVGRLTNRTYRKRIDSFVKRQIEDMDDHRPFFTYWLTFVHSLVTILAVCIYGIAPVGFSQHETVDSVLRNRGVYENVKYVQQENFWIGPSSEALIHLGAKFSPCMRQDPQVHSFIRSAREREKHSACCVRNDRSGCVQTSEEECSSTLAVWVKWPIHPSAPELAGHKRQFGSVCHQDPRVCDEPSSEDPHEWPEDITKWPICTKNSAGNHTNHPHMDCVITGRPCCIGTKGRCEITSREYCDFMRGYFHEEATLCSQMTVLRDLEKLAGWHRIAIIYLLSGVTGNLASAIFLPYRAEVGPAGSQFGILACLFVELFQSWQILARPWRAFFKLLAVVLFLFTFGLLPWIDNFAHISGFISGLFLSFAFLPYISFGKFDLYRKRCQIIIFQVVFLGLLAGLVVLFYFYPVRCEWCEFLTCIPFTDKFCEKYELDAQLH


What was measured:
rhesus monkey iRhom1 = biological target: T1, rhesus monkey iRhom1; assay: FACS binding on MEF-DKO-Rhesus-iR1-FL-WT-T7 cells; settings: antibody at 3 μg/ml
Excerpt: (§1) Next, iRhom1/2−/− DKO MEFs stably expressing a tagged form of rhesus monkey, cynomolgus monkey, dog or rabbit iRhom2 were generated in order to determine cross-reactivity of the antibodies of the invention with the respective orthologue of iRhom2. iRhom1/2−/− DKO MEFs stably expressing a tagged form of rhesus monkey, cynomolgus monkey, dog or rabbit iRhom1 were generated to confirm specificity for iRhom2 versus iRhom1 of these species.
(§2) In brief, on day 1, Phoenix-ECO cells (American Type Culture Collection, USA) were seeded on 6-well tissue culture plates (Greiner, Germany) in standard growth medium at 8×10^5 cells per well and kept overnight at 37° C., 5% CO2. On day 2, the medium was replaced by fresh medium supplemented with chloroquine (Sigma-Aldrich, USA) at a final concentration of 25 μM. Applying the calcium phosphate method, cells were transfected with 2 μg/ml of pMSCV (Clontech, USA) empty vector, pMSCV-rhesus-iR2-FL-WT-T7 encoding rhesus monkey iRhom2 full length wild type C-terminally tagged with 3 consecutive copies of the T7 epitope, pMSCV-cyno-iR2-FL-WT-T7 encoding cynomolgus monkey iRhom2 full length wild type C-terminally tagged with 3 consecutive copies of the T7 epitope, pMSCV-dog-iR2-FL-WT-T7 encoding dog iRhom2 full length wild type C-terminally tagged with 3 consecutive copies of the T7 epitope or pMSCV-rabbit-iR2-FL-WT-T7 encoding rabbit iRhom2 full length wild type C-terminally tagged with 3 consecutive copies of the T7 epitope, respectively, and were kept at 37° C., 5% CO2. After 7 hours, the transfections were stopped by replacing cell supernatants with standard growth medium lacking chloroquine, and cells were incubated at 37° C., 5% CO2 to allow virus production overnight. In parallel, immortalized iRhom1/2−/− DKO MEFs as target cells for retroviral infection were seeded on 6-well tissue culture plates (Greiner, Germany) in standard growth medium at 1×10^5 cells per well and were also kept overnight at 37° C., 5% CO2. On day 3, the supernatants of Phoenix-ECO cells releasing pMSCV, pMSCV-rhesus-iR2-FL-WT-T7, pMSCV-cyno-iR2-FL-WT-T7, pMSCV-dog-iR2-FL-WT-T7 or pMSCV-rabbit-iR2-FL-WT-T7 ecotrophic virus, respectively were collected, filtered with 0.45 μm CA filters, and supplemented with 4 μg/ml of polybrene (Sigma-Aldrich, USA). Upon removal of medium from the immortalized iRhom1/2−/− DKO MEFs, the virus containing supernatants were added to the target cells for 4 hours at 37° C., 5% CO2 for first infection. Simultaneously, Phoenix-ECO cells were re-incubated with fresh medium, which, after another 4 hours, was filtered and used for the second infection of the respective target cell populations, again in the presence of 4 μg/ml of polybrene. Likewise, a third, but overnight infection cycle was performed. On day 4, virus containing cell supernatants were replaced by fresh standard growth medium. From day 5 onwards, cells were grown in the presence of 2 mg/ml of geneticin (G418, Thermo Fisher Scientific, USA) for the selection of immortalized MEF-DKO-EV control cells stably infected with pMSCV empty vector, pMSCV-rhesus-iR2-FL-WT-T7 cells stably expressing rhesus monkey iRhom2 full length wild type C-terminally tagged with 3 consecutive copies of the T7 epitope, pMSCV-cyno-iR2-FL-WT-T7 cells stably expressing cynomolgus monkey iRhom2 full length wild type C-terminally tagged with 3 consecutive copies of the T7 epitope, pMSCV-dog-iR2-FL-WT-T7 cells stably expressing dog iRhom2 full length wild type C-terminally tagged with 3 consecutive copies of the T7 epitope or pMSCV-rabbit-iR2-FL-WT-T7 cells stably expressing rabbit iRhom2 full length wild type C-terminally tagged with 3 consecutive copies of the T7 epitope, respectively. Upon propagation, cells were stocked for future usage. In parallel, iRhom1/2−/− DKO MEFs stably expressing a tagged form of rhesus monkey, cynomolgus monkey, dog or rabbit iRhom1 were generated in an analogous manner. […]

cynomolgus monkey iRhom2 = assay: FACS cross-reactivity on MEF-DKO-Cyno-iR2-FL-WT-T7 cells; assay type: binding; settings: antibody at 3 μg/ml
Excerpt: as §1, §2

Row | Molecule | binding to rhesus monkey iRhom1 on MEF-DKO-Rhesus-iR1-FL-WT-T7 cells (rhesus monkey iRhom1) | binding to cynomolgus monkey iRhom2 on MEF-DKO-Cyno-iR2-FL-WT-T7 cells (cynomolgus monkey iRhom2)
1 | 23-B-04: humanized antibody binding human iRhom2; HCVD SEQ ID NO 25, LCVD SEQ ID NO 29 (antibody, V domains shown, antibody sequences) VH: QVTLRESGPALVKPTQTLTLTCTFSGFSLSTFGMGVGWIRQPPGKALEWLAHIWWDDEKYYNSALKSRLTISKDTSKNQVVLTITNMDPVDTATYYCARISNYGSNYWYFNVWGQGTLVTVSS VL: AIQLTQSPSSLSASVGDRVTITCRASSSVSYMYWYQQKPGKAPKVLIYDTSNLASGVPSRFSGSGSGTDYTLTISSLQPEDFATYYCQQWNAYPLTFGQGTKLEIK | do not recognize rhesus monkey iRhom1 | recognize cynomolgus monkey iRhom2
2 | 42-B-04: humanized antibody binding human iRhom2; HCVD SEQ ID NO 41, LCVD SEQ ID NO 45 (antibody, V domains shown, antibody sequences) VH: QVTLRESGPALVKPTQTLTLTCTFSGFSLSTFGRGVGWIRQPPGKALEWLAHIWWDDEKYYNSALKSRLTISKDTSKNQVVLTITNMDPVDTATYYCARIQNYGSNYWYFDVWGQGTLVTVSS VL: AIQLTQSPSSLSASVGDRVTITCRASSRISYMFWYQQKPGKAPKVLIYDTSNLASGVPSRFSGSGSGTDYTLTISSLQPEDFATYYCQQWNAYPLTFGQGTKLEIK | do not recognize rhesus monkey iRhom1 | recognize cynomolgus monkey iRhom2
3 | 16-B-05: humanized antibody binding human iRhom2; HCVD SEQ ID NO 9, LCVD SEQ ID NO 13 (antibody, V domains shown, antibody sequences) VH: QVTLRESGPALVKPTQTLTLTCTFSGFSLSTFALGVGWIRQPPGKALEWLAHIWWDEDKYYNPALKSRLTISKDTSKNQVVLTITNMDPVDTATYYCARITTYYYGMDYWGQGTLVTVSS VL: EIVMTQSPDFQSVTPKEKVTITCRASQSIGNHLHWYQQKPDASPKLLIKYASQSISGVPSRFSGSGSGTDFTLTINSLEAEDAATYFCQQSYNWPLTFGQGTKLEIK | do not recognize rhesus monkey iRhom1 | recognize cynomolgus monkey iRhom2
4 | 16-B-07: humanized antibody binding human iRhom2; HCVD SEQ ID NO 17, LCVD SEQ ID NO 21 (antibody, V domains shown, antibody sequences) VH: QVTLRESGPALVKPTQTLTLTCTFSGFSLSTFALGVGWIRQPPGKALEWLAHIWWDEDKYYNPALKSRLTISKDTSKNQVVLTITNMDPVDTATYYCARITTYYYGMDYWGQGTLVTVSS VL: EIVMTQSPDFQSVTPKEKVTITCRASQSIGNHLHWYQQKPDASPKLLIKYASQSISGVPSRFSGSGSGTDFTLTINSLEAEDAATYFCQQSYQWPLTFGQGTKLEIK | do not recognize rhesus monkey iRhom1 | recognize cynomolgus monkey iRhom2

Continued, in another order:

Row | binding to rhesus monkey iRhom1 on MEF-DKO-Rhesus-iR1-FL-WT-T7 cells (rhesus monkey iRhom1) | Molecule | binding to cynomolgus monkey iRhom2 on MEF-DKO-Cyno-iR2-FL-WT-T7 cells (cynomolgus monkey iRhom2)
5 | do not recognize rhesus monkey iRhom1 | 42-B-02: humanized antibody binding human iRhom2; HCVD SEQ ID NO 33, LCVD SEQ ID NO 37 (antibody, V domains shown, antibody sequences) VH: QVTLRESGPALVKPTQTLTLTCTFSGFSLSTFGRGVGWIRQPPGKALEWLAHIWWDDEKYYNSALKSRLTISKDTSKNQVVLTITNMDPVDTATYYCARIQNYGSNYWYFDVWGQGTLVTVSS VL: AIQLTQSPSSLSASVGDRVTITCRASSRISYMFWYQQKPGKAPKVLIYDTSNLASGVPSRFSGSGSGTDYTLTISSLQPEDFATYYCQQWNSYPLTFGQGTKLEIK | recognize cynomolgus monkey iRhom2
6 | no significant binding | 16-B-03: humanized antibody binding human iRhom2; HCVD SEQ ID NO 1, LCVD SEQ ID NO 5 (antibody, V domains shown, antibody sequences) VH: QVTLRESGPALVKPTQTLTLTCTFSGFSLSTFALGVGWIRQPPGKALEWLAHIWWDDDKYYNPALKSRLTISKDTSKNQVVLTITNMDPVDTATYYCARITTYYYGMDYWGQGTLVTVSS VL: EIVMTQSPDFQSVTPKEKVTITCRASQSIGNHLHWYQQKPDASPKLLIKYASQSISGVPSRFSGSGSGTDFTLTINSLEAEDAATYFCQQSYQWPLTFGQGTKLEIK | Strong binding
